From article PMC2659241 (The Journal of Biological Chemistry, 2009)

Target: Recombinant human moesin FERM domain (human, UniProt P26038 2-295)
Assay: cross-linking

Sequence of Recombinant human moesin FERM domain (P26038 2-295): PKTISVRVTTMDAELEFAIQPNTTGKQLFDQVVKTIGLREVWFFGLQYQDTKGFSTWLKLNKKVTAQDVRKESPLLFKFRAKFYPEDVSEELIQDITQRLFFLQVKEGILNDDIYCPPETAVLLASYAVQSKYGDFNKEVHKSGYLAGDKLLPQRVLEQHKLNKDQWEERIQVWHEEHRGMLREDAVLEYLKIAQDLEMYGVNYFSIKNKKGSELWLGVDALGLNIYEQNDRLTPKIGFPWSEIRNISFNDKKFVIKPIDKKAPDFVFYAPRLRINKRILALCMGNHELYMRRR

B1: L-selectin cytoplasmic tail peptide (peptide)
peptide: RRLKKGKKSKRSMNDPY
  stoichiometry N: 1
